Laboratory results as given in patent publication US20220411483A1 (Chugai, published 2022).

Biological target: T1, FcγRIa extracellular domain with C-terminal His tag (human, UniProt P12314 16-292)
T1 construct: also called FcgRIa
Assay: SPR (Biacore), FcgR as analyte

T1 sequence (P12314 16-292): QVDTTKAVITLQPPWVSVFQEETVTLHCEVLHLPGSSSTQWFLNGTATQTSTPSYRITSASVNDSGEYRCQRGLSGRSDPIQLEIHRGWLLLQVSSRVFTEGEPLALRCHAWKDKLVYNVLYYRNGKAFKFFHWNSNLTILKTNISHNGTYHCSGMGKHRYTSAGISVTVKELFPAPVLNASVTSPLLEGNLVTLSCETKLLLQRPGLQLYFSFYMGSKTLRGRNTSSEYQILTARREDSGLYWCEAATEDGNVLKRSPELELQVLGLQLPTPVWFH

| Binder | Kd |
| --- | --- |
| IL6R-BP243/IL6R-L (antibody, human IgG1, kappa, name in EU numbering, IgG1; alterations on IL6R-B3, EU numbering) heavy: QVQLQESGPGLVKPSETLSLTCAVSGHSISHDHAWSWVRQPPGEGLEWIGFISYSGITNYNPSLQGRVTISRDNSKNTLYLQMNSLRAEDTAVYYCARSLARTTAMDYWGEGTLVTVSSASTKGPSVFPLAPSSKSTSGGTAALGCLVKDYFPEPVTVSWNSGALTSGVHTFPAVLQSSGLYSLSSVVTVPSSSLGTQTYICNVNHKPSNTKVDKKVEPKSCDKTHTCPPCPAPDYLGDDSVFLFPPKPKDTLMISRTPEVTCVVVDVSDEDGEVKFNWYVDGVEVHNAKTKPREEQYNSTYRVVSVLTVLHQDWLNGKEYKCKVSNKALPRPIEKTISKAKGQPREPQVYTLPPSRDELTKNQVSLTCLVKGFYPSDIAVEWESNGQPENNYKTTPPVLDSDGSFFLYSKLTVDKSRWQQGNVFSCSVMHEALHNHYTQESLSLSP light: not shown | 3 nM |
| IL6R-BP246/IL6R-L (antibody, human IgG1, kappa, name in EU numbering, IgG1; alterations on IL6R-B3, EU numbering) heavy: QVQLQESGPGLVKPSETLSLTCAVSGHSISHDHAWSWVRQPPGEGLEWIGFISYSGITNYNPSLQGRVTISRDNSKNTLYLQMNSLRAEDTAVYYCARSLARTTAMDYWGEGTLVTVSSASTKGPSVFPLAPSSKSTSGGTAALGCLVKDYFPEPVTVSWNSGALTSGVHTFPAVLQSSGLYSLSSVVTVPSSSLGTQTYICNVNHKPSNTKVDKKVEPKSCDKTHTCPPCPAPDLLGDDSVFLFPPKPKDTLMISRTPEVTCVVVDVQDEDGEVKFNWYVDGVEVHNAKTKPREEQDNSTYRVVSVLTVLHQDWLNGKEYKCKVSNAALPRPIEKTISKAKGQPREPQVYTLPPSRDELTKNQVSLTCLVKGFYPSDIAVEWESNGQPENNYKTTPPVLDSDGSFFLYSKLTVDKSRWQQGNVFSCSVMHEALHNHYTQESLSLSP light: not shown | 8 nM |

Continued by falling Kd, values first:

| Kd | Binder |
| --- | --- |
| 95 nM | IL6R-BP202/IL6R-L (antibody, human IgG1, kappa, name in EU numbering, IgG1; alterations on IL6R-B3, EU numbering) heavy: QVQLQESGPGLVKPSETLSLTCAVSGHSISHDHAWSWVRQPPGEGLEWIGFISYSGITNYNPSLQGRVTISRDNSKNTLYLQMNSLRAEDTAVYYCARSLARTTAMDYWGEGTLVTVSSASTKGPSVFPLAPSSKSTSGGTAALGCLVKDYFPEPVTVSWNSGALTSGVHTFPAVLQSSGLYSLSSVVTVPSSSLGTQTYICNVNHKPSNTKVDKKVEPKSCDKTHTCPPCPAPELLGDDSVFLFPPKPKDTLMISRTPEVTCVVVDVSHEDGEVKFNWYVDGVEVHNAKTKPREEQYNSTYRVVSVLTVLHQDWLNGKEYKCKVSNAALPRPIEKTISKAKGQPREPQVYTLPPSRDELTKNQVSLTCLVKGFYPSDIAVEWESNGQPENNYKTTPPVLDSDGSFFLYSKLTVDKSRWQQGNVFSCSVMHEALHNHYTQESLSLSP light: not shown |
| 70 nM | IL6R-BP233/IL6R-L (antibody, human IgG1, kappa, name in EU numbering, IgG1; alterations on IL6R-B3, EU numbering) heavy: QVQLQESGPGLVKPSETLSLTCAVSGHSISHDHAWSWVRQPPGEGLEWIGFISYSGITNYNPSLQGRVTISRDNSKNTLYLQMNSLRAEDTAVYYCARSLARTTAMDYWGEGTLVTVSSASTKGPSVFPLAPSSKSTSGGTAALGCLVKDYFPEPVTVSWNSGALTSGVHTFPAVLQSSGLYSLSSVVTVPSSSLGTQTYICNVNHKPSNTKVDKKVEPKSCDKTHTCPPCPAPEYLGDDSVFLFPPKPKDTLMISRTPEVTCVVVDVSHEDGEVKFNWYVDGVEVHNAKTKPREEQYNSTYRVVSVLTVLHQDWLNGKEYKCKVSNKALPKPIEKTISKAKGQPREPQVYTLPPSRDELTKNQVSLTCLVKGFYPSDIAVEWESNGQPENNYKTTPPVLDSDGSFFLYSKLTVDKSRWQQGNVFSCSVMHEALHNHYTQESLSLSP light: not shown |
| 20 nM | IL6R-BP220/IL6R-L (antibody, human IgG1, kappa, name in EU numbering, IgG1; alterations on IL6R-B3, EU numbering) heavy: QVQLQESGPGLVKPSETLSLTCAVSGHSISHDHAWSWVRQPPGEGLEWIGFISYSGITNYNPSLQGRVTISRDNSKNTLYLQMNSLRAEDTAVYYCARSLARTTAMDYWGEGTLVTVSSASTKGPSVFPLAPSSKSTSGGTAALGCLVKDYFPEPVTVSWNSGALTSGVHTFPAVLQSSGLYSLSSVVTVPSSSLGTQTYICNVNHKPSNTKVDKKVEPKSCDKTHTCPPCPAPDLLGDDSVFLFPPKPKDTLMISRTPEVTCVVVDVSDEDGEVKFNWYVDGVEVHNAKTKPREEQDNSTYRVVSVLTVLHQDWLNGKEYKCKVSNKALPKPIEKTISKAKGQPREPQVYTLPPSRDELTKNQVSLTCLVKGFYPSDIAVEWESNGQPENNYKTTPPVLDSDGSFFLYSKLTVDKSRWQQGNVFSCSVMHEALHNHYTQESLSLSP light: not shown |
